Results published in patent US6344189B1, “Use of protease inhibitors for treating skin wounds” (Biotech Australia Pty., Ltd., priority 1998, dated 2002).
Entries after “also recorded” stand apart in the source; their conditions may differ. Read-outs that look alike come from different tables or passages of the source. Where a SMILES comes first, the peptide text is derived from it. [ ]: non-standard residue; d: D form. The star is where a group is joined. Sta = CC(C)C[C@H](N)[C@@H](O)CC(=O)O; Isovaleryl = CC(C)CC(=O)*

Legend:
[1] = test system: protease activity in wound fluid; experiment: Inhibition of protease activity in wound fluid in vitro, substrate ZGGRAMC, fluorescence at 460 nm; type: biochemical, patients
Procedure: Wound fluid was collected from patients with chronic venous leg ulcers, and incubated in vitro in the presence or absence of each inhibitor along with the protease substrate ZGGRAMC. Cleavage of this substrate indicated protease activity, which was detected by fluorescence at 460 nm. Lack of fluorescence indicated inhibition of protease activity.
Conditions were as described above for single inhibitors.

[2] = test system: chronic venous leg ulcers; experiment: Double blind placebo controlled randomized trial of topical PAI-2, ulcer area by tracing; type: in vivo, patients; conditions: PAI-2 20 μg per cm^2 topical, five consecutive days; 29-day course; compared with placebo
Source text: The study was a double blind placebo controlled randomized trial. A stratified randomization was utilized according to ulcer size. Patients with ulcers less than, and greater than, 20 cm^2 were randomized separately. No minimum or maximum times were set for the patients' current ulcer episode. Minimum and maximum ulcer areas were 2 cm^2 and 50 cm^2, and a patient's resting ankle brachial doppler arterial pressure index for inclusion was equal to or greater than 0.80.
All patients received compression bandaging. The area of the ulcer was determined by tracing, and the test solution, either PAI-2 at 1.0 mg/ml in phosphate buffered saline, pH 7.0, or buffer alone, was applied at 20 μl (20 ,μg in the case of PAI-2) per cm^2. The patient was asked to lie recumbent on the examination couch while the test solution was applied to the surface of the wound, and to remain there for 15 minutes before bandaging was applied.
(§1) Test solution was applied in this manner for five consecutive days. This was followed by visits on days 15, 22, and 29. Ulcer area determination was made on days 1, 5, 15, 22, and 29, ulcer volume was measured by structured light assessment on days 1, 5, and 29, and the ulcer was photographed on days 1, 5, and 29. Adverse events were assessed at each visit, as were concomitant medications.

uPA [3] = experiment: uPA activity in patients' wound fluid by Chromolise assay; type: in vivo
Procedure: (§2) In addition, wound fluid was collected on the first day before addition of test solution, and 2 hr, 4 hr, and 6 hr afterwards. Wound fluid collection was also made on days 2, 3, 4, and 5 (before test solution addition) and day 29. Blood samples were taken on day 1 at 0 (before), 0.5 hr, 1 hr, and 2 hr after the test solution, and also at day 5. A punch biopsy was taken for histochemical examination of the ulcer edge on day 5.
(§3) All wound fluid samples were analyzed for uPA activity by the Chromolise assay, and for total protein by the Bradford assay. If sufficient wound fluid was available, the following assays were also performed, in order of priority: (i) PAI-2 antigen level, by ELISA; (ii) a Western blot to detect whether the PAI-2 molecule was intact, complexed, or in fragments; (iii) total protease activity, determined by a chromogenic assay using azo-casein as substrate, and (iv) total protease activity in the presence of EDTA (to block metalloproteases) or aprotinin (to block plasmin). In addition, blood samples were analyzed by PAI-2 ELISA (0, 0.5, 1, 2 hr on day 1) and analyzed for FBC and clinical chemistry on day 1(0) and day 5.
(§4) The ELISA used for PAI-2 detected both glycosylated and non-glycosylated PAI-2, and both complexed (with uPA or tPA) and uncomplexed PAI-2. Insufficient wound fluid was obtained for total protease assays in the presence of aprotinin or EDTA. The variation in ulcer volume measurements by structured light assessment was very large:—20.4% on repeated measurements, so those data could not be used to judge small changes in ulcer volume.

[4] = PAI-2 antigen level by ELISA and Western blot in wound fluid and blood samples; type: in vivo, patients; conditions: for level of PAI-2 in wound fluid: first visit
Procedure: as §2, §3, §4

[5] = test system: total protease activity in wound fluid; experiment: Total protease activity in wound fluid, chromogenic assay with azo-casein substrate; type: in vivo, patients; conditions: ng/ml of wound fluid or ng/mg protein
Procedure: as §3

[6] = Adverse events and histological examination of ulcer edge biopsies; type: in vivo, patients
Procedure: as §1, §2
Histological examination was performed on biopsies taken at visit 5 after staining with hematoxylin and eosin. […] This effect is likely to be beneficial to the ulcer.

[7] = Stability of PAI-2 in wound fluid; type: in vitro ADME; conditions: 3-hour period, FIG. 1
Procedure: (§5) It also is apparent that the inhibitors must be stable in the wound fluid to be effective in aiding wound healing. In the context of the present invention, an inhibitor is suitably stable when it retains at least 50% of its activity after exposure to wound fluid for 3 hours. In this regard, therefore, it is particularly desirable to use an inhibitor that inhibits uPA and is stable in wound fluid.

uPA [8] = molecular target: T1, uPA (Homo sapiens, UniProt P00749); experiment: Addition of PAI-2 to wound fluid, uPA activity; type: biochemical; conditions: PAI-2 added to wound fluid
T1 construct: from tissue; host or cells: wound fluid
Procedure: as §5

[9] = PAI-2 release from gel in two compartment vessel with microporous membrane; type: physicochemical; conditions: cellulose gel, presence of Tween80, FIG. 4
Source text: In these experiments, the PAI-2 containing gel was placed in the top chamber of a two compartment vessel. The bottom chamber contained buffer, and the two chambers were separated by a microporous membrane. The appearance of PAI-2 in the lower chamber indicated PAI-2 release from the gel, and was monitored by assays for PAI-2 activity.

[10] = single inhibitors, wound fluid of chronic venous leg ulcers

Question: With `CC(C)CC(=O)N[C@H](C(=O)N[C@H](C(=O)N[C@@H](CC(C)C)[C@@H](O)CC(=O)N[C@@H](C)C(=O)N[C@@H](CC(C)C)[C@@H](O)CC(=O)O)C(C)C)C(C)C` [Pepstatin] (Isovaleryl-VV[Sta]A[Sta]-OH) as the molecule, how does the “Percent Inhibition” value [1, 10] read?
Answer: 0%

Question: For “glutamic acid-glycine-arginine chloromethyl ketone [EGRCK]”, which “Percent Inhibition” value [1] is on record?
Answer: 94%

Question: With `CCN1C(=O)C=CC1=O` [NEM, N-ethyl maleimide] as the molecule, how does the “Percent Inhibition” value [1, 10] read?
Answer: 21%

Question: Which “Percent Inhibition” value [1, 10] does the source give for `O=C(O)CN(CCN(CC(=O)O)CC(=O)O)CC(=O)O` [EDTA, ethylene diamine tetraacetic acid] here?
Answer: 0%

Question: Which “Percent Inhibition” value [1, 10] does the source give for `N=C(N)NC(=O)c1nc(Cl)c(N)nc1N` [Amiloride] here?
Answer: 96%

B1: plasminogen activator inhibitor 2 (protein, UniProt P05120 1-415, looked up)
Plasminogen activator …: MEDLCVANTLFALNLFKHLAKASPTQNLFLSPWSISSTMAMVYMGSRGSTEDQMAKVLQFNEVGANAVTPMTPENFTSCGFMQQIQKGSYPDAILQAQAADKIHSSFRSLSSAINASTGNYLLESVNKLFGEKSASFREEYIRLCQKYYSSEPQAVDFLECAEEARKKINSWVKTQTKGKIPNLLPEGSVDGDTRMVLVNAVYFKGKWKTPFEKKLNGLYPFRVNSAQRTPVQMMYLREKLNIGYIEDLKAQILELPYAGDVSMFLLLPDEIADVSTGLELLESEITYDKLNKWTSKDKMAEDEVEVYIPQFKLEEHYELRSILRSMGMEDAFNKGRANFSGMSERNDLFLSEVFHQAMVDVNEEGTEAAAGTGGVMTGRTGHGGPQFVADHPFLFLIMHKITNCILFFGRFSSP
Question: Which ulcer area [2] does the source give for B1 here?
Answer: significant decrease in the area of leg ulcers compared to controls; also recorded: a reduction in the ulcer area

Question: And the “specific activity of uPA (ng/mg of total protein in wound fluid)” value (uPA [3]; first day of PAI-2 administration, relative to placebo group)?
Answer: declined over 6 hrs

Question: What about the “difference in uPA between the two groups expressed as units/ml of wound fluid” value (uPA [3]; per ml of wound fluid rather than per mg total protein) of the same molecule?
Answer: not apparent

Question: What about the “uPA activity in wound fluid” value (uPA [3]; subsequent days over the course of the study, PAI-2 vs placebo) of the same molecule?
Answer: no significant difference

Question: And the “intact PAI-2 in wound fluid, Western blot” value ([4]; 2 hr)?
Answer: significant amounts of intact PAI-2

Question: What about the “level of PAI-2 in wound fluid” value ([4]; 2 hr after topical application) of the same molecule?
Answer: increased dramatically

Question: And the “level of PAI-2 in wound fluid” value ([4]; 4 hr after topical application)?
Answer: declined almost to baseline

Question: What about the “systemic distribution of topically applied PAI-2” value ([4]; blood samples, PAI-2 ELISA) of the same molecule?
Answer: No evidence of systemic distribution

Question: What about the total protease activity [5] of the same molecule?
Answer: did not appear to be altered

Question: And the “damage to the tissue, histological examination” value ([6]; biopsies at visit 5, hematoxylin and eosin)?
Answer: No evidence of damage to the tissue

Question: What about the systemic toxicity ([6]; in vivo) of the same molecule?
Answer: does not appear to have systemic toxicity

Question: And the adverse events ([6]; topical PAI-2, chronic leg ulcers, course of the study)?
Answer: none of the adverse events was deemed related to the PAI-2 treatment

Question: What about the “stability in wound fluid” value [7] of the same molecule?
Answer: relatively stable in wound fluid

Question: What about the “uPA activity in wound fluid” value (uPA [8]) of the same molecule?
Answer: caused the inhibition of uPA activity

Question: And the “release of PAI-2 from gel” value [9]?
Answer: enhanced release
